This note sets out measurements from publication PMC11720163, “Position-Dependent Effects of AP Sites Within an hTERT Promoter G-Quadruplex Scaffold on Quadruplex Stability and Repair Activity of the APE1 Enzyme”.

Data set [1] concerns the target APE1 (human AP endonuclease 1), His-tagged (Homo sapiens) (UniProt P27695). Nature of the data set: BLI. Particulars: 1 mM Ca2+, N = F, BLI: 20 mM Tris-HCl pH 7.5, 100 mM KCl, 1 mM CaCl2, DNA 10-100 nM, temperature not stated, DNA annealed with at least 20 mM KCl.
The target of data set [2] is APE1 (human AP endonuclease 1), His-tagged (Homo sapiens, UniProt P27695 1-318). Kind of data set: BLI; 1 mM Ca2+; BLI: 20 mM Tris-HCl pH 7.5, 100 mM KCl, 1 mM CaCl2; DNA 10-100 nM; temperature not stated; DNA annealed with at least 20 mM KCl. Particulars: protein: recombinant; label: 3'-TAMRA; three stacked intramolecular parallel G4s. A general note: In BLI a coated tip is dipped into the sample, and binding shifts an interference pattern.
Chain of APE1 (human AP endonuclease 1), His-tagged (P27695 whole entry): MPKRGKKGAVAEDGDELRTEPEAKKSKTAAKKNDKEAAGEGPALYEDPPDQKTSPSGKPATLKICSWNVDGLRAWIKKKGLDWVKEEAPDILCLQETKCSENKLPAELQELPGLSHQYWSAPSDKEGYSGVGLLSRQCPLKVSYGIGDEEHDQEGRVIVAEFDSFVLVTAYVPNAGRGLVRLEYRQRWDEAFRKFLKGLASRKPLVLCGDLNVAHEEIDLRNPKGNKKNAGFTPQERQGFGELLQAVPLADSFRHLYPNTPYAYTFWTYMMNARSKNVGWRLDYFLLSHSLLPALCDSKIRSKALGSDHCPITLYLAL

Chain of APE1 (human AP endonuclease 1), His-tagged (Homo sapiens) (P27695 whole entry): as above

One may read the Kd as the free concentration of one partner at which half of the binding sites on the other are occupied at equilibrium, for simple one-to-one binding. In turn, “GCCGCGGAAAGGAAGGGGAGGGGCTGGGAGGGCCCGGAGGGGGCTGGGCCGNGGACCCGGGAGGGGTCGGGACGGGGCGGGGTCCGCGCGGAGGAG [96-G242F]” displayed an equilibrium dissociation constant (Kd) in data set [1] (stable AP site analog) of 3 nM.

“GCCGCGGAAAGGAAGGGGAGGGGCTGGGAGGGCCCGGANGGGGCTGGGCCGGGGACCCGGGAGGGGTCGGGACGGGGCGGGGTCCGCGCGGAGGAG [96-G228F]” had a Kd in data set [1] (stable AP site analog) of 3 nM.

Take “GCCGCGGAAAGGAAGGGGAGGGGCTGGGAGGGCCCGGAGGGGGCTGGGCCGGGGACCCGGNAGGGGTCGGGACGGGGCGGGGTCCGCGCGGAGGAG [96-G250F]”: in data set [1] (stable AP site analog), the Kd amounted to 3 nM.

Take “ACCTGGATGCCTATAGGGCGAATTGGGTACCGCTGAATTGCACTGGACTNGATCCTCGATGATCCTAAGCTAAGCTTCAGCTCCAGCCTAAGCCTG [96-RF]”: the Kd fold-increase relative to G4 substrates (fold higher Kd than G4 substrates) in data set [1] (stable AP site analog) stood at 10.

Molecule “GCCGCGGAAAGGAAGGGGAGGGGCTGGGAGGGCCCGGAGGGGGCTGGGCCGNNGACCCGGGAGGGGTCGGGACGGGGCGGGGTCCGCGCGGAGGAG [96-G242,243F]” yielded a Kd in data set [1] (stable AP site analog (two)) of 3 nM.

In turn, “GCCGCGGAAAGGAAGGGGAGGGGCTGGGAGGGCCCGGAGGGGGCTGGGCCGGNGACCCGGGAGGGGTCGGGACGGGGCGGGGTCCGCGCGGAGGAG [96-G243F]” gave a Kd in data set [1] (stable AP site analog) of 3 nM.

B1: 96-G4 (structured_DNA)
DNA: GCCGCGGAAAGGAAGGGGAGGGGCTGGGAGGGCCCGGAGGGGGCTGGGCCGGGGACCCGGGAGGGGTCGGGACGGGGCGGGGTCCGCGCGGAGGAG
Consider B1, for which the dissociation constant Kd in data set [2] stood at 4.2 ± 1.4 nM.
